Data as given in patent US20120213785A1.
Each block holds one molecule with its values, some of them ahead of it.

How the values were obtained:
[1] = biological target: Notch3-LD/Fc fusion protein (human Notch3 LIN12/dimerization domain fused to human gamma 1 Fc) (human) [IgG part: P01857]; assay: ELISA, plate coated with Notch3-LD/Fc, hybridoma supernatant
[2] = biological target: human Notch3 receptor, full-length (human) (UniProt Q9UM47); assay: FACS on Sup-T1 cells naturally expressing Notch3
Sequence of human Notch3 receptor, full-length (human) (Q9UM47 40-2321 A2223V limits assumed): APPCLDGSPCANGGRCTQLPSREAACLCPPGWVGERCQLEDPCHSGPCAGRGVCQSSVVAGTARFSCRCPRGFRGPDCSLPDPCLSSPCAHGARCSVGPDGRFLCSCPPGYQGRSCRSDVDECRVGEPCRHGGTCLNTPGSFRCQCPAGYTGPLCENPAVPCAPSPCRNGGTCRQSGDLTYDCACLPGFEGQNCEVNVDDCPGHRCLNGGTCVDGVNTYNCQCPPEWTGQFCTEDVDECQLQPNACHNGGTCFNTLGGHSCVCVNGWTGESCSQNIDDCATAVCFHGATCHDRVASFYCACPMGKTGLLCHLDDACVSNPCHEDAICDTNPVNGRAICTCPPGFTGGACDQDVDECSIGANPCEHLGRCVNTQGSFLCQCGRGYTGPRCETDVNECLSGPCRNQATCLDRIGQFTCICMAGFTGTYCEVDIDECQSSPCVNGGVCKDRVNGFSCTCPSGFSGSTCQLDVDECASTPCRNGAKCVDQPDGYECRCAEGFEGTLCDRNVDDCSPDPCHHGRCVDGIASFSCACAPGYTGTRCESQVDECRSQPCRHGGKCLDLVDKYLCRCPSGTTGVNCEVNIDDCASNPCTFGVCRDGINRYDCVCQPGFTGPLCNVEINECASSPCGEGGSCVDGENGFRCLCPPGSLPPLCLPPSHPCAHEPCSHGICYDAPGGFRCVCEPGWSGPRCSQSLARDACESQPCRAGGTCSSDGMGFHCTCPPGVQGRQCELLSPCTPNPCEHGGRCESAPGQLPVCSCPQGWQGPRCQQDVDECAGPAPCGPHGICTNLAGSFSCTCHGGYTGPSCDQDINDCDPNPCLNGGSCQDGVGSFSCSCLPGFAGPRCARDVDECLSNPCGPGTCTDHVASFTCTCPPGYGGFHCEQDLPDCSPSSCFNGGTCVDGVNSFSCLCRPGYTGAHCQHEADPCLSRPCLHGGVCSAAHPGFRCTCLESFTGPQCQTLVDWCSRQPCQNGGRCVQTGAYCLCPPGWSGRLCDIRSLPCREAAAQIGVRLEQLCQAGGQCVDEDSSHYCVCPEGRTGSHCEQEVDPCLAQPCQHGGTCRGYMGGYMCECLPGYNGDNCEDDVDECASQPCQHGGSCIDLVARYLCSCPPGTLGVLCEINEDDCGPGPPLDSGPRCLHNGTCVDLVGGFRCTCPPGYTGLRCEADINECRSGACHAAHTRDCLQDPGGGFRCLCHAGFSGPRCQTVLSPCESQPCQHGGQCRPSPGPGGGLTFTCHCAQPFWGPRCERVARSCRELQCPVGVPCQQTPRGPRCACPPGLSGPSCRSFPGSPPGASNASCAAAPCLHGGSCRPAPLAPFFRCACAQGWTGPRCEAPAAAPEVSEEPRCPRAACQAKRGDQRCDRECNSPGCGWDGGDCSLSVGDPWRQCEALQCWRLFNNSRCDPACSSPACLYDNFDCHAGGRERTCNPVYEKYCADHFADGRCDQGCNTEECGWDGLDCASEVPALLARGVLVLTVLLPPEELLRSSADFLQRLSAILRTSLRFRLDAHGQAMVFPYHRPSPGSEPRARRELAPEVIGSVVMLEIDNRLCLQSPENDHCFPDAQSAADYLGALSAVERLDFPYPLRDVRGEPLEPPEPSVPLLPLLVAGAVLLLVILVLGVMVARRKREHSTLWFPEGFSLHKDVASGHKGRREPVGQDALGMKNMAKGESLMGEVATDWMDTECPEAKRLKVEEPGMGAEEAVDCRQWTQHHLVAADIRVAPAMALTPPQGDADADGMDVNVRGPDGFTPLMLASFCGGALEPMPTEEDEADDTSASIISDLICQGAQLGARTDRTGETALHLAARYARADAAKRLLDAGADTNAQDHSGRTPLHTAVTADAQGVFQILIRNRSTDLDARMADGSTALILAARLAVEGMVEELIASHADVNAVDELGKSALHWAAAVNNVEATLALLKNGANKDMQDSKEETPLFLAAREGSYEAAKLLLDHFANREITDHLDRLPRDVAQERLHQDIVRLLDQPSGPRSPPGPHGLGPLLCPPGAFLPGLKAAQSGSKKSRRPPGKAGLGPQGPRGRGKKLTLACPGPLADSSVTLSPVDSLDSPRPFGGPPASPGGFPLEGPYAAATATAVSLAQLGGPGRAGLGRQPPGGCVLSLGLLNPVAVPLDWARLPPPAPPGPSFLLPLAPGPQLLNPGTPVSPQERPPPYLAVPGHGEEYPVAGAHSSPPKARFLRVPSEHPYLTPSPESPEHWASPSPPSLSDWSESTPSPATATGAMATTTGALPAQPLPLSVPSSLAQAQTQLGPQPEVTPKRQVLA

[3] = biological target: human Notch3 receptor, full-length (human) (UniProt Q9UM47); assay: FACS on 293T cells expressing Notch3 (Notch3/Hyg)
[4] = biological target: Notch3-LD/Fc fusion protein (human Notch3 LIN12/dimerization domain fused to human gamma 1 Fc) (human) [IgG part: P01857]; assay: ELISA on Notch3-LD/Fc
Notch3-D1/Fc (human) = Notch3-D1/Fc (human) (UniProt Q9UM47); assay: ELISA on Notch3-domain/Fc fusion proteins
Notch3-D2/Fc (human) = Notch3-D2/Fc (human) (UniProt Q9UM47); assay: ELISA on Notch3-domain/Fc fusion proteins

Sequence of Notch3-LD/Fc fusion protein (human Notch3 LIN12/dimerization domain fused to human gamma 1 Fc) (human) [IgG part: P01857] (P01857 other isoform, or with tags, fused parts or gaps limits assumed): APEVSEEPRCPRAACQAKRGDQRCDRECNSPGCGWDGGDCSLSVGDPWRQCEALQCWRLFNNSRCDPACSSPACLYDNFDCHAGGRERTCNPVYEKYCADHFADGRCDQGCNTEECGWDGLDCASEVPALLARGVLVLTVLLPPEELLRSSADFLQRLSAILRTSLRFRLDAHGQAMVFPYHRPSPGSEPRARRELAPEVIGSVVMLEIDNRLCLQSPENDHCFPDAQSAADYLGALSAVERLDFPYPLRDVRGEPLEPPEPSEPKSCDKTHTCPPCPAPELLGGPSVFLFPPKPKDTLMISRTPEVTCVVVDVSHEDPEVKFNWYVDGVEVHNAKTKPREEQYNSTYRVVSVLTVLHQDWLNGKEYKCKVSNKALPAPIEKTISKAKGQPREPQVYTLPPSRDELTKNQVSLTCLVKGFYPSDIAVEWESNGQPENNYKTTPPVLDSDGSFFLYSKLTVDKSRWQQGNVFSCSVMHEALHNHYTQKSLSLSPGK

ELISA OD reading (mean) [1]: 0.019 OD (450 nm)
mean fluorescent intensity [2]: 24.5 MFI
mean fluorescent intensity [3]: 24.2 MFI
ELISA OD reading (mean) [4]: 0.063 OD
Molecule: Control IgG1 MAb (antibody)

ELISA OD reading (Notch3-D1/Fc (human)): 0.015 OD
ELISA OD reading (Notch3-D2/Fc (human)): 0.015 OD
B1: anti-Notch3 monoclonal antibody MAb 256A-13 (antibody, IgG1, V domains shown)
VH: SQVQLQQSGAELAKPGTSVKMACKASGYTFTTHWMNWVKQRPGQGLEWIGTINPSNDFTDCNQKFKDKAILTADKSSSTAYMQLSSLTSEDSAIYYCASGLTARAWFAYWGQGTLVTVSAA
VL: RATISCRASQSVTTSNYSYMHWFQQKPGQPPKLLIKYASNLDSGVPARFSGSGSGTDFTLNIHPVEEEDTATFYCQHSWEIPYTFGGGTNLEIKRADAAPTV
